Where two headings read alike, the source gives them in different places.

One assay addresses T1, EGFR-moIgG2a-Fc K489E (human).
T1 construct: See m39
As to the kind of experiment: ELISA, coated mutant EGFR.

Assay [1] concerns the target T2, EGFR-moIgG2a-Fc fusion protein comprising the extracellular domain (aa 25 - 645) of human EGFR (human).
T2 construct: also called EGFR wt
As to the kind of experiment: ELISA, coated EGFR-moIgG2a-Fc.

Assay [2] has as its target T3, EGFR-His fusion protein comprising the extracellular domain of murine EGFR (aa 25 - 647) (murine, UniProt Q01279 25-647).
T3 construct: Bought protein; also called mouse EGFR; Sino Biological 51091-M08H
Put plainly: ELISA, coated murine EGFR-His.

For another assay, the target named is T4, EGFR-moIgG2a-Fc G434A (human).
T4 construct: also called EGFR G434A
Put plainly: ELISA, coated mutant EGFR-moIgG2a-Fc.

Another assay has as its target T5, EGFR-moIgG2a-Fc Q435P (human).
T5 construct: see m31; also called EGFR Q435P
As to the kind of experiment: ELISA, coated mutant EGFR-moIgG2a-Fc.

In the next assay the target is T6, EGFR-moIgG2a-Fc F436A (human).
T6 construct: see m31; also called EGFR F436A
Put plainly: ELISA, coated mutant EGFR-moIgG2a-Fc.

Another assay deals with T7, EGFR-moIgG2a-Fc I462A (human).
T7 construct: see m31; also called EGFR I462A
Put plainly: ELISA, coated mutant EGFR-moIgG2a-Fc.

Assay [3] addresses T8, EGFR-moIgG2a-Fc F436A/I462A (human).
T8 construct: see m31; also called double mutant F436A/I462A
As to the kind of experiment: ELISA, coated mutant EGFR-moIgG2a-Fc.

For assay [4], the target named is T9, human EGFR (aa 1 - 1,210), on cells (human, UniProt P00533 25-1210).
T9 construct: also called EGFR wt; NIH-3T3 + EGFR wt
Put plainly: flow cytometry, A431 cells.

The target in assay [5] is T9, human EGFR (aa 1 - 1,210), on cells. Put plainly: flow cytometry, DiFi cells.
Assay [6] shares this target. Put plainly: flow cytometry, FaDu cells.
Assay [7] has the same target. As to the kind of experiment: flow cytometry, LIM1215 cells.
Another assay addresses EGFR-moIgG2a-Fc S484A (human). Put plainly: ELISA, coated mutant EGFR-moIgG2a-Fc.
Another assay has as its target EGFR-moIgG2a-Fc K487A (human). Put plainly: ELISA, coated mutant EGFR-moIgG2a-Fc.
The target in assay [8] is T9, human EGFR (aa 1 - 1,210), on cells. As to the kind of experiment: cell-based or functional assay.
For assay [9] the target is unchanged. Put plainly: cell-based or functional assay. This is another data set of the same source.
Assay [10] has the same target. Put plainly: flow cytometry, FaDu cells. This is another data set of the same source.
For assay [11] the target is unchanged. Put plainly: flow cytometry, FaDu cells. The source holds these as a separate data set.
Assay [12] shares this target. Put plainly: flow cytometry, SW620 cells.
In another assay the target is T10, CD3 on Jurkat cells (human, UniProt P07766 23-207).
T10 construct: whole, on cells; also called CD3-expressing Jurkat
Put plainly: flow cytometry, Jurkat cells.

Assay [13] addresses T9, human EGFR (aa 1 - 1,210), on cells. As to the kind of experiment: flow cytometry, LIM1215 cells. The source holds these as a separate data set.
The target is the same in assay [14]. Put plainly: flow cytometry, HCT-116 cells.
Assay [15] deals with T11, EGFR-His fusion protein comprising the extracellular domain (aa 25 - 645) of human EGFR (human, UniProt P00533 25-645).
T11 construct: also called His-tagged extracellular domain of EGFR wt
Put plainly: ELISA, coated EGFR-His.

For assay [16], the target named is T11, EGFR-His fusion protein comprising the …. As to the kind of experiment: ELISA, coated human EGFR.
Assay [17] has as its target T9, human EGFR (aa 1 - 1,210), on cells. Put plainly: flow cytometry, DiFi cells. This is another data set of the same source.
The target is the same in assay [18]. As to the kind of experiment: flow cytometry, FaDu cells. The source holds these as a separate data set.
Assay [19] addresses T11, EGFR-His fusion protein comprising the …. Put plainly: ELISA, coated human EGFR-His.
Assay [20] addresses T3, EGFR-His fusion protein comprising the …. Put plainly: ELISA, coated murine EGFR-His. The source holds these as a separate data set.
Assay [21] has as its target T12, EGFR-His fusion protein comprising the extracellular domain of cynomolgus monkey EGFR (aa 1 - 645) (cynomolgus monkey, UniProt P55245 25-645 (rhesus entry)).
T12 construct: Bought protein; also called Sino Biological SIN-90285-C08H-50
As to the kind of experiment: ELISA, coated cynomolgus monkey EGFR-His.

The target of assay [22] is T2, EGFR-moIgG2a-Fc fusion protein …. As to the kind of experiment: ELISA, coated EGFR-moIgG2a-Fc. The source holds these as a separate data set.
Assay [23] concerns the target T13, EGFR-moIgG2a-Fc F381A/H383A (human).
T13 construct: also called F381/H383
Put plainly: ELISA, coated mutant EGFR-moIgG2a-Fc.

The target in assay [24] is T3, EGFR-His fusion protein comprising the …. Put plainly: ELISA, coated murine EGFR-His, 10 nM IgG.
The target of assay [25] is T2, EGFR-moIgG2a-Fc fusion protein …. Put plainly: competition ELISA, coated EGFR-moIgG2a-Fc; 1 nM IgG against 200 nM Fab-His.

B1: Panitumumab (antibody, human IgG1, kappa, V domains shown)
VH: QVQLQESGPGLVKPSETLSLTCTVSGGSVSSGDYYWTWIRQSPGKGLEWIGHIYYSGNTNYNPSLKSRLTISIDTSKTQFSLKLSSVTAADTAIYYCVRDRVTGAFDIWGQGTMVTVSS
VL: DIQMTQSPSSLSASVGDRVTITCQASQDISNYLNWYQQKPGKAPKLLIYDASNLETGVPSRFSGSGSGTDFTFTISSLQPEDIATYFCQHFDHLPLAFGGGTKVEIKR
notes: also called IgG Panitumumab
Regarding B1, the binding result with EGFR-moIgG2a-Fc K489E is “binds”; in assay [1] it was “binds”; in [2], “no binding (tested: 10 nM)”; with EGFR-moIgG2a-Fc G434A it was “binds”; with EGFR-moIgG2a-Fc Q435P it was “binds”; in the assay with EGFR-moIgG2a-Fc F436A it was “binds”. Moreover, the binding result (with EGFR-moIgG2a-Fc I462A; in assay [3]) was “binds” in each case.

B2: Matuzumab (antibody, human IgG1, kappa, V domains shown)
VH: QVQLVQSGAEVKKPGASVKVSCKASGYTFTSHWMHWVRQAPGQGLEWIGEFNPSNGRTNYNEKFKSKATMTVDTSTNTAYMELSSLRSEDTAVYYCASRDYDYDGRYFDYWGQGTLVTVSS
VL: DIQMTQSPSSLSASVGDRVTITCSASSSVTYMYWYQQKPGKAPKLLIYDTSNLASGVPSRFSGSGSGTDYTFTISSLQPEDIATYYCQQWSSHIFTFGQGTKVEIKR
notes: also called IgG Matuzumab
Regarding B2, the binding result in assay [1] is “binds”; in [2], “no binding (tested: 10 nM)”; in the assay with EGFR-moIgG2a-Fc G434A it was “binds”; with EGFR-moIgG2a-Fc Q435P, “binds”; with EGFR-moIgG2a-Fc F436A it was “binds”; with EGFR-moIgG2a-Fc I462A, “binds”. For the same molecule, the binding result in assay [3] is given as “binds”; with EGFR-moIgG2a-Fc S484A, “no binding”; with EGFR-moIgG2a-Fc K487A, “no binding”. For the same molecule, the EC50 in assay [4] came out at 1680 pM; in assay [5], 950 pM; in assay [6] it was 340 pM; in assay [7], 120 pM.

B3: Fab-eIg YU250-H10xhuU3 (bispecific antibody)
light: QSVLTQPPSVSGAPGQRVTISCSGGSSNVGRNGVNWFQHLPEKAPKLLIYYDAFLSSGVSDRFSGSKSGTSASLAIRGLQSDDEADYYCAAWDDSLYSWVFGGGTNLTVLGQPKAAPSVTLFPPSSEELQANKATLVCLISDFYPGAVTVAWKADSSPVKAGVETTTPSKQSNNKYAASSYLSLTPEQWKSHRSYSCQVTHEGSTVEKTVAPTECS
chain 1: not shown
chain 2: not shown
chain 3: not shown
notes: also called bispecific trivalent EGFRxCD3 Fab-eIg YU250-H10
As to B3, the “IC50 for cytotoxicity, FaDu + PBMCs (E:T 10:1)” value is 7 pM in assay [8] and 4.8 pM in assay [9]. Moreover, the “IC50 for cytotoxicity, LIM1215 + PBMCs (E:T 10:1)” value in assay [8] amounted to 3 pM. In [9], the “IC50 for cytotoxicity, HCT-116 + PBMCs (E:T 10:1)” value was found to be 3 pM. The “IC50 for cytotoxicity, SW620 + PBMCs (E:T 10:1)” value in [9] was determined as 4.9 pM. Moreover, the concentration giving a half-maximal response (EC50) is 760 pM in [10]; 320 pM in assay [11]; 30 pM in [12]; > 10000 pM in the assay with CD3 on Jurkat cells; 270 pM in [13]; 130 pM in [14].

B4: IgG1 YU250-A02 (antibody, V domains shown)
VH: QVQLQESGGGVVQPGGSLRLSCAASGFTFSSYGMHWVRQAPGKGLEWVAFIRYDGSNKYYADSVKGRFTISRDNSKNTLYLQMNSLRAEDTAVYYCAKDGNSGYDSMDYWGQGTLVTVSS
VL: QSVLTQPPSVSGAPGQRVTISCSGGSSNVGRNGVNWFQHLPEKAPKLLIYYDAFLSSGVSDRFSGSKSGTSASLAIRGLQSEDEADYYCASWDDSLTGWVFGGGTKLTVLG
notes: also called IgG YU250-A02
Consider B4, for which the EC50 came to 160 pM in [15]; 590 pM in assay [16]; 640 pM in [17]; 230 pM in assay [18]; 1240 pM in [4]; 640 pM in assay [5]. Moreover, the EC50 came out at 260 pM in assay [6]; 360 pM in assay [19]; 380 pM in [20]; 90 pM in assay [7]; 690 pM in assay [21].

B5: IgG1 YU250-H10 (antibody)
light: B3 light
heavy: not shown
notes: also called IgG YU250-H10
In the case of B5, the EC50 came out at 190 pM in [15]; 780 pM in assay [16]; 780 pM in [17]; 290 pM in [18]; 1560 pM in assay [4]; 730 pM in assay [5]. In addition, the EC50 in assay [6] came to 270 pM; in assay [19], 280 pM; in assay [22] it was 270 pM; in [20], 450 pM; in assay [7], 90 pM; in [21] it was 580 pM.

B6: IgG GC1118 (antibody, V domains shown)
VH: EVQLVESGGGVVQPGGSLRLSCAASGFTFSDYDMSWIRQAPGKGLEWVSGILGGSERSYYRDSVKGRFTISRDNSRKTLYLQMNSLRAEDTAVYYCARHGSPGYTLYAWDYWGQGTTVTVSS
VL: DIVMTQTPLSLPVTPGEPASISCRSNQDLTHSNGNTYLEWYLQKPGQSPRLLIYKVSNRFSGVPDRFSGSGAGTDFTLRISRVEAEDVGVYYCMQGTHWPWTFGQGTKVDIKR
notes: also called GC118
Regarding B6, the EC50 in assay [4] was found to be 1670 pM; in assay [5] it was 1100 pM; in assay [6] it was 470 pM; in assay [7] it was 150 pM. Further, the binding result with EGFR-moIgG2a-Fc G434A is recorded as “binds”; with EGFR-moIgG2a-Fc Q435P it was “binds”; with EGFR-moIgG2a-Fc F436A, “binds”; with EGFR-moIgG2a-Fc I462A, “binds”; in [3] it was “binds”; in assay [23] it was “no binding”. Also, the binding result in assay [24] and in [25] was “binds” throughout.

For the origin of these results see patent EP4454706A1 (Universität Stuttgart, dated 2024).
